B1: Protein PTHB1 (Homo sapiens), Q3SYG4 (parent)
chain: MSLFKARDWWSTILGDKEEFDQGCLCLANVDNSGNGQDKIIVGSFMGYLRIFSPHPAKTGDGAQAEDLLLEVDLRDPVLQVEVGKFVSGTEMLHLAVLHSRKLCVYSVSGTLGNVEHGNQCQMKLMYEHNLQRTACNMTYGSFGGVKGRDLICIQSMDGMLMVFEQESYAFGRFLPGFLLPGPLAYSSRTDSFLTVSSCQQVESYKYQVLAFATDADKRQETEQQKLGSGKRLVVDWTLNIGEQALDICIVSFNQSASSVFVLGERNFFCLKDNGQIRFMKKLDWSPSCFLPYCSVSEGTINTLIGNHNNMLHIYQDVTLKWATQLPHIPVAVRVGCLHDLKGVIVTLSDDGHLQCSYLGTDPSLFQAPNVQSRELNYDELDVEMKELQKIIKDVNKSQGVWPMTEREDDLNVSVVVSPNFDSVSQATDVEVGTDLVPSVTVKVTLQNRVILQKAKLSVYVQPPLELTCDQFTFEFMTPDLTRTVSFSVYLKRSYTPSELEGNAVVSYSRPTDRNPDGIPRVIQCKFRLPLKLICLPGQPSKTASHKITIDTNKSPVSLLSLFPGFASQSDDDQVNVMGFHFLGGARITVLASKTSQRYRIQSEQFEDLWLITNELILRLQEYFEKQGVKDFACSFSGSIPLQEYFELIDHHFELRINGEKLEELLSERAVQFRAIQRRLLARFKDKTPAPLQHLDTLLDGTYKQVIALADAVEENQGNLFQSFTRLKSATHLVILLIALWQKLSADQVAILEAAFLPLQEDTQELGWEETVDAAISHLLKTCLSKSSKEQALNLNSQLNIPKDTSQLKKHITLLCDRLSKGGRLCLSTDAAAPQTMVMPGGCTTIPESDLEERSVEQDSTELFTNHRHLTAETPRPEVSPLQGVSE
partner: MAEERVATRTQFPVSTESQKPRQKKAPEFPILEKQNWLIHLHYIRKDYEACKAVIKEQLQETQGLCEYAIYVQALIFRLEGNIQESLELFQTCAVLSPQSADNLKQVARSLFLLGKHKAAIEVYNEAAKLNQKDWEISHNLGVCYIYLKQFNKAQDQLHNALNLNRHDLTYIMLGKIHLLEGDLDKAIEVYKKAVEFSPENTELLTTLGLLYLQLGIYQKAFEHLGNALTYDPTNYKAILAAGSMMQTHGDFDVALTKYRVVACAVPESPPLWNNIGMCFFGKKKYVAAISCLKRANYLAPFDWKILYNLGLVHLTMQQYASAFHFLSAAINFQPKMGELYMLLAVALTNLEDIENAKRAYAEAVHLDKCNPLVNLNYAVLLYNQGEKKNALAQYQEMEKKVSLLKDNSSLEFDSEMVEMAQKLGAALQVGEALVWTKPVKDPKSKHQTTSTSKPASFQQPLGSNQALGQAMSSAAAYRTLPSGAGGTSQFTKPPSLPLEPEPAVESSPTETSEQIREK

In this test the parent is B1. The settings on record: with bbs4_human BBS4, Q96RK4.
Turning to F563E, the “effect of a mutation on the interaction” value was “with no effect”.

Take F563S: the “effect of a mutation on the interaction” value is listed as “disrupting interaction strength”.

Take F563K: the “effect of a mutation on the interaction” value is recorded as “with no effect”.

Consider F563A, for which the “effect of a mutation on the interaction” value is reported as “with no effect”.

Consider K532A, for which the “effect of a mutation on the interaction” value is “with no effect”.

For K532E, the “effect of a mutation on the interaction” value is on record as “with no effect”.

With Q574K, the “effect of a mutation on the interaction” value is “with no effect”.

On to Q574A, for which the “effect of a mutation on the interaction” value was “with no effect”.

In the case of Q574R, the “effect of a mutation on the interaction” value is recorded as “disrupting interaction strength”.

Regarding Q574E, the “effect of a mutation on the interaction” value was “with no effect”.

Consider D571K, for which the “effect of a mutation on the interaction” value was “with no effect”.

Consider D571A, for which the “effect of a mutation on the interaction” value was “with no effect”.

Regarding D571E, the “effect of a mutation on the interaction” value is “with no effect”.

Regarding K554S, the “effect of a mutation on the interaction” value was “disrupting interaction strength”.

Turning to K554A, the “effect of a mutation on the interaction” value is “with no effect”.

For the variant K554E, the “effect of a mutation on the interaction” value is “with no effect”.

Take C535E: the “effect of a mutation on the interaction” value is on record as “with no effect”.

Turning to C535K, the “effect of a mutation on the interaction” value is reported as “with no effect”.

As to C535A, the “effect of a mutation on the interaction” value is recorded as “with no effect”.

Regarding S555A, the “effect of a mutation on the interaction” value was “with no effect”.

In the case of S555K, the “effect of a mutation on the interaction” value was “with no effect”.

Consider S555E, for which the “effect of a mutation on the interaction” value was “with no effect”.

Consider R528E, for which the “effect of a mutation on the interaction” value was “with no effect”.

For the variant R528K, the “effect of a mutation on the interaction” value is listed as “with no effect”.

Regarding R528A, the “effect of a mutation on the interaction” value is “with no effect”.

Turning to S561A, the “effect of a mutation on the interaction” value is “with no effect”.

Take S561E: the “effect of a mutation on the interaction” value was “with no effect”.

Consider S561K, for which the “effect of a mutation on the interaction” value is recorded as “with no effect”.

With T552E, the “effect of a mutation on the interaction” value is “with no effect”.

Take T552K: the “effect of a mutation on the interaction” value is reported as “with no effect”.

For T552A, the “effect of a mutation on the interaction” value is “with no effect”.

L560A: the “effect of a mutation on the interaction” value was “with no effect”.

As for L560K, the “effect of a mutation on the interaction” value is listed as “with no effect”.

Consider L560E, for which the “effect of a mutation on the interaction” value is recorded as “with no effect”.

On to F566K, for which the “effect of a mutation on the interaction” value is reported as “with no effect”.

Consider F566E, for which the “effect of a mutation on the interaction” value was “with no effect”.

Consider F566A, for which the “effect of a mutation on the interaction” value is recorded as “with no effect”.

Turning to D573A, the “effect of a mutation on the interaction” value is given as “with no effect”.

As for D573K, the “effect of a mutation on the interaction” value is “with no effect”.

As for D573E, the “effect of a mutation on the interaction” value is “with no effect”.

Regarding G579K, the “effect of a mutation on the interaction” value is recorded as “with no effect”.

On to G579A, for which the “effect of a mutation on the interaction” value is listed as “with no effect”.

For the variant G579E, the “effect of a mutation on the interaction” value is given as “with no effect”.

With D551A, the “effect of a mutation on the interaction” value is on record as “with no effect”.

On to D551E, for which the “effect of a mutation on the interaction” value is listed as “with no effect”.

As for D551K, the “effect of a mutation on the interaction” value is “with no effect”.

P540A: the “effect of a mutation on the interaction” value was “with no effect”.

Regarding P540K, the “effect of a mutation on the interaction” value was “with no effect”.

For the variant P540E, the “effect of a mutation on the interaction” value was “with no effect”.

Take P530S: the “effect of a mutation on the interaction” value is “disrupting interaction strength”.

With P530E, the “effect of a mutation on the interaction” value is on record as “with no effect”.

In the case of P530K, the “effect of a mutation on the interaction” value is listed as “with no effect”.

Turning to P530A, the “effect of a mutation on the interaction” value is “with no effect”.

With P530L, the “effect of a mutation on the interaction” value is recorded as “disrupting interaction strength”.

For Q569R, the “effect of a mutation on the interaction” value is given as “disrupting interaction strength”.

In the case of Q569K, the “effect of a mutation on the interaction” value is given as “with no effect”.

Consider Q569E, for which the “effect of a mutation on the interaction” value is listed as “with no effect”.

For Q569A, the “effect of a mutation on the interaction” value was “with no effect”.

On to T543K, for which the “effect of a mutation on the interaction” value is listed as “with no effect”.

On to T543A, for which the “effect of a mutation on the interaction” value was “with no effect”.

On to T543E, for which the “effect of a mutation on the interaction” value was “with no effect”.

G585A: the “effect of a mutation on the interaction” value is on record as “with no effect”.

Turning to G585K, the “effect of a mutation on the interaction” value is “with no effect”.

Regarding G585E, the “effect of a mutation on the interaction” value was “with no effect”.

For S541A, the “effect of a mutation on the interaction” value is “with no effect”.

For the variant S541E, the “effect of a mutation on the interaction” value is reported as “with no effect”.

Consider S541K, for which the “effect of a mutation on the interaction” value was “with no effect”.

Take F580E: the “effect of a mutation on the interaction” value was “with no effect”.

On to F580A, for which the “effect of a mutation on the interaction” value is on record as “with no effect”.

Regarding F580K, the “effect of a mutation on the interaction” value is reported as “with no effect”.

In the case of F527K, the “effect of a mutation on the interaction” value was “with no effect”.

For the variant L536A, the “effect of a mutation on the interaction” value is listed as “with no effect”.

In the case of L536E, the “effect of a mutation on the interaction” value was “with no effect”.

As to L536K, the “effect of a mutation on the interaction” value was “with no effect”.

As to V557K, the “effect of a mutation on the interaction” value is “with no effect”.

Regarding V557E, the “effect of a mutation on the interaction” value is on record as “with no effect”.

On to V557A, for which the “effect of a mutation on the interaction” value is given as “with no effect”.

Take I548E: the “effect of a mutation on the interaction” value is on record as “with no effect”.

Consider I548K, for which the “effect of a mutation on the interaction” value is “with no effect”.

With I548A, the “effect of a mutation on the interaction” value was “with no effect”.

For the variant P537E, the “effect of a mutation on the interaction” value is given as “with no effect”.

With P537K, the “effect of a mutation on the interaction” value is given as “with no effect”.

P537L: the “effect of a mutation on the interaction” value is given as “disrupting interaction strength”.

In the case of P537A, the “effect of a mutation on the interaction” value is given as “with no effect”.

On to G565R, for which the “effect of a mutation on the interaction” value is “disrupting interaction strength”.

Regarding G565A, the “effect of a mutation on the interaction” value is “with no effect”.

For G565E, the “effect of a mutation on the interaction” value was “with no effect”.

As for G565K, the “effect of a mutation on the interaction” value was “with no effect”.

For the variant P564K, the “effect of a mutation on the interaction” value is reported as “with no effect”.

As for P564A, the “effect of a mutation on the interaction” value is on record as “with no effect”.

Source of the values: IntAct's records for PubMed 29039417.
